In publication PMC10511499:

Target: human dynein complex, wild type (tagged IC2C with the dynein subunits of 293 cells) (told two ways: 'Rat IC2C' (methods), human (results, legend) | human (endogenous in Flp-In T-REx 293 cells)) (UniProt Q14204)
Experiment: TIRF microscopy microtubule recruitment assay; mammalian proteins; dynein or DDB on biotin-microtubules, SRP90 assay buffer with 2 mM AMP-PNP, 10 min; apparent affinity

## human dynactin p150-CC1 (residues 224-554) (from UniProt Q14203-1 224-554) (domain or fragment)
  fold greater apparent affinity than Ndel1: 6 fold
